Experimental data reported in patent US20040096899A1, “Immunoassay method for membrane-bound matrix metalloprotease” (priority 2000, published 2004).

B1: MMP-9: matrix metalloproteinase subjected to MT1-MMP sandwich EIA for cross reactivity (protein)
chain: APRQRQSTLVLFPGDLRTNLTDRQLAEEYLYRYGYTRVAEMRGESKSLGPALLLLQKQLSLPETGELDSATLKAMRTPRCGVPDLGRFQTFEGDLKWHHHNITYWIQNYSEDLPRAVIDDAFARAFALWSAVTPLTFTRVYSRDADIVIQFGVAEHGDGYPFDGKDGLLAHAFPPGPGIQGDAHFDDDELWSLGKGVVVPTRFGNADGAACHFPFIFEGRSYSACTTDGRSDGLPWCSTTANYDTDDRFGFCPSERLYTQDGNADGKPCQFPFIFQGQSYSACTTDGRSDGYRWCATTANYDRDKLFGFCPTRADSTVMGGNSAGELCVFPFTFLGKEYSTCTSEGRGDGRLWCATTSNFDSDKKWGFCPDQGYSLFLVAAHEFGHALGLDHSSVPEALMYPMYRFTEGPPLHKDDVNGIRHLYGPRPEPEPRPPTTTTPQPTAPPTVCPTGPPTVHPSERPTAGPTGPPSAGPTGPPTAGPSTATTVPLSPVDDACNVNIFDAIAEIGNQLYLFKDGKYWRFSEGRGSRPQGPFLIADKWPALPRKLDSVFEERLSKKLFFFSGRQVWVYTGASVLGPRRLDKLGLGADVAQVTGALRSGRGKMLLFSGRRLWRFDVKAQMVDPRSASEVDRMFPGVPLDTHDVFQYREKAYFCQDRFYWRVSSRSELNQVDQVGYVTYDILQCPED
B2: MMP-19: matrix metalloproteinase subjected to MT1-MMP sandwich EIA for cross reactivity (protein)
chain: RVLGLAEVAPVDYLSQYGYLQKPLEGSNNFKPEDITEALRAFQEASELPVSGQLDDATRARMRQPRCGLEDPFNQKTLKYLLLGRWRKKHLTFRILNLPSTLPPHTARAALRQAFQDWSNVAPLTFQEVQAGAADIRLSFHGRQSSYCSNTFDGPGRVLAHADIPELGSVHFDEDEFWTEGTYRGVNLRIIAAHEVGHALGLGHSRYSQALMAPVYEGYRPHFKLHPDDVAGIQALYGKKSPVIRDEEEEETELPTVPPVPTEPSPMPDPCSSELDAMMLGPRGKTYAFKGDYVWTVSDSGPGPLFRVSALWEGLPGNLDAAVYSPRTQWIHFFKGDKVWRYINFKMSPGFPKKLNRVEPNLDAALYWPLNQKVFLFKGSGYWQWDELARTDFSSYPKPIKGLFTGVPNQPSAAMSWQDGRVYFFKGKVYWRLNQQLRVEKGYPRNISHNWMHCRPRTIDTTPSGGNTTPSGTGITLDTTLSATETTFEY
B3: MMP-20: matrix metalloproteinase subjected to MT1-MMP sandwich EIA for cross reactivity (protein)
chain: APSLVAASPRTWRNNYRLAQAYLDKYYTNKEGHQIGEMVARGSNSMIRKIKELQAFFGLQVTGKLDQTTMNVIKKPRCGVPDVANYRLFPGEPKWKKNTLTYRISKYTPSMSSVEVDKAVEMALQAWSSAVPLSFVRINSGEADIMISFENGDHGDSYPFDGPRGTLAHAFAPGEGLGGDTHFDNAEKWTMGTNGFNLFTVAAHEFGHALGLAHSTDPSALMYPTYKYKNPYGFHLPKDDVKGIQALYGPRKVFLGKPTLPHAPHHKPSIPDLCDSSSSFDAVTMLGKELLLFKDRIFWRRQVHLRTGIRPSTITSSFPQLMSNVDAAYEVAERGTAYFFKGPHYWITRGFQMQGPPRTIYDFGFPRHVQQIDAAVYLREPQKTLFFVGDEYYSYDERKRKMEKDYPKNTEEEFSGVNGQIDAAVELNGYIYFFSGPKTYKYDTEKEDVVSVVKSSSWIGC
B4: MMP-1: matrix metalloproteinase subjected to MT1-MMP sandwich EIA for cross reactivity (protein)
chain: FPATLETQEQDVDLVQKYLEKYYNLKNDGRQVEKRRNSGPVVEKLKQMQEFFGLKVTGKPDAETLKVMKQPRCGVPDVAQFVLTEGNPRWEQTHLTYRIENYTPDLPRADVDHAIEKAFQLWSNVTPLTFTKVSEGQADIMISFVRGDHRDNSPFDGPGGNLAHAFQPGPGIGGDAHFDEDERWTNNFREYNLHRVAAHELGHSLGLSHSTDIGALMYPSYTFSGDVQLAQDDIDGIQAIYGRSQNPVQPIGPQTPKACDSKLTFDAITTIRGEVMFFKDRFYMRTNPFYPEVELNFISVFWPQLPNGLEAAYEFADRDEVRFFKGNKYWAVQGQNVLHGYPKDIYSSFGFPRTVKHIDAALSEENTGKTYFFVANKYWRYDEYKRSMDPGYPKMIAHDFPGIGHKVDAVFMKDGFFYFFHGTRQYKFDPKTKRILTLQKANSWFNCRKN
B5: MMP-2: matrix metalloproteinase subjected to MT1-MMP sandwich EIA for cross reactivity (protein)
chain: APSPIIKFPGDVAPKTDKELAVQYLNTFYGCPKESCNLFVLKDTLKKMQKFFGLPQTGDLDQNTIETMRKPRCGNPDVANYNFFPRKPKWDKNQITYRIIGYTPDLDPETVDDAFARAFQVWSDVTPLRFSRIHDGEADIMINFGRWEHGDGYPFDGKDGLLAHAFAPGTGVGGDSHFDDDELWTLGEGQVVRVKYGNADGEYCKFPFLFNGKEYNSCTDTGRSDGFLWCSTTYNFEKDGKYGFCPHEALFTMGGNAEGQPCKFPFRFQGTSYDSCTTEGRTDGYRWCGTTEDYDRDKKYGFCPETAMSTVGGNSEGAPCVFPFTFLGNKYESCTSAGRSDGKMWCATTANYDDDRKWGFCPDQGYSLFLVAAHEFGHAMGLEHSQDPGALMAPIYTYTKNFRLSQDDIKGIQELYGASPDIDLGTGPTPTLGPVTPEICKQDIVFDGIAQIRGEIFFFKDRFIWRTVTPRDKPMGPLLVATFWPELPEKIDAVYEAPQEEKAVFFAGNEYWIYSASTLERGYPKPLTSLGLPPDVQRVDAAFNWSKNKKTYIFAGDKFWRYNEVKKKMDPGFPKLIADAWNAIPDNLDAVVDLQGGGHSYFFKGAYYLKLENQSLKSVKFGSIKSDWLGC

Molecular target: T1, MT1-MMP sandwich EIA (solid-phase antibody 222-2D12, labeled antibody 222-1D8) (Homo sapiens, UniProt P50281)
T1 construct: 488 amino acid residues of Δ MT1-MMP (G^48 to G^53) which lacks the signal peptide and part of the propeptide region; made in house; host or cells: E. coli
Assay: Specificity test: cross reactivity on MT1-MMP sandwich EIA
Type: binding
Conditions: concentration 1 μg/mL; blank 0.027
Experimental: Monoclonal antibodies (e.g., 333-2D12 (IgG)) were dissolved in 0.1 M phosphate buffer, pH 7.0 to a concentration of 25 μg/mL. The monoclonal antibody solution was added to each well of a 96-well microwell (Maxisorp; Nunc-Immuno Module) at 100 μL per well and allowed to stand at 4° C. for 24 hrs. […] The solid-phase antibodies were preserved at 4° C.
Standard antigens or samples to be assayed were dispensed into a 96-well vinyl plate at 25 μL each. To each well was added a dilution buffer in aliquots of 100 μL, followed by mixing. An aliquot (100 μL) of the resultant mixture was taken out, dispensed into an antibody-solid phased plate from which a blocking solution was removed by washing. The plate was then allowed to stand at 4° C. for 16 hours.
[…] antibody 222-1D8 (Fab′-HRP) was diluted with a blocking solution to a concentration of 0.4 μg/mL. The reaction solution was removed from the antibody-solid phased plate where the primary reaction was completed. The plate was washed with a washing liquid three times and an aliquot (100 μL) of the labeled antibody solution was added to each well. The plate was allowed to stand at room temperature for 1 hour.
After completion of the reaction, the labeled antibody solution was removed. The plate was then washed with a washing liquid three times, and a TMB solution (CALBIOCHEM) was added to each well at 100 μL. The mixture was allowed to react at room temperature for 20 minute. The reaction was stopped with the addition of 2 N sulfuric acid at 100 μL per well. The reaction mixture was measured for A450 with a microplate reader (MPR-A4; Tosoh).
Each of MMP-1, -2, -3, -4, -7, -8, -9, -13, -19 and -20 was prepared to give a concentration of 1 μg/mL, and subjected to MT1-MMP sandwich EIA. A450 was measured. When MT1-MMP was subjected to sandwich EIA at 0.16 μg/mL, the absorbance was 2.206. However, when the above MMPs were subjected, their absorbances were only an extent of 0.024 to 0.071. Accordingly, it has been verified that MT1-MMP sandwich EIA is specifically reactive with MT1-MMP.

Molecule	A450
B1	0.039
B2	0.027
B3	0.071
B4	0.025
B5	0.024
